The values below come from US20170152286A1.

In the assay the target is MAGUK GK domain. Put plainly: ITC.

Positions of bridges follow the written chain, without caps; N, C: chain ends. Non-standard residues stand in square brackets, D forms with d. No end group written: not given here. Lys(5-OH) = 5-hydroxyl lysine

For ARRDEYL[Lys(5-OH)]AIQ-NH2 (lactam 4-8), the Kd – broadly, the equilibrium constant for the complex coming apart – turned out to be 5.9 µM.
